Data from patent publication US8728472 (University of Texas, dated 2014).

Legend:
[1] = target: T1, p25 generated in rat brain or rat striatal neurons by ischemia (MCAO or OGD) (rat, UniProt P61809 99-307 (mouse entry)); assay: detection of p25 in stroked rat brain; immunostains of striatum and cortex (FIG. 7D)
T1 construct: Endogenous protein in tissue sections, lysates and primary cultures; also called p25 generated by MCAO; p25 generated in response to focal ischemia

[2] = target: T2, Cdk5 expressed in HEK293T cells from a transfected eukaryotic expression plasmid (UniProt Q00535 1-292); assay: immunohistochemical staining of transfected HEK293T cells (FIG. 2C)
T2 construct: also called cyclin-dependent kinase 5

[3] = target: T3, p35 (Mus musculus (Mouse), UniProt P61809 1-307); assay: immunoblot of striatal lysates from p25 over-expressing mice (FIG. 2B)
T3 construct: also called Cdk5 cofactor p35
T3 sequence (P61809 whole entry): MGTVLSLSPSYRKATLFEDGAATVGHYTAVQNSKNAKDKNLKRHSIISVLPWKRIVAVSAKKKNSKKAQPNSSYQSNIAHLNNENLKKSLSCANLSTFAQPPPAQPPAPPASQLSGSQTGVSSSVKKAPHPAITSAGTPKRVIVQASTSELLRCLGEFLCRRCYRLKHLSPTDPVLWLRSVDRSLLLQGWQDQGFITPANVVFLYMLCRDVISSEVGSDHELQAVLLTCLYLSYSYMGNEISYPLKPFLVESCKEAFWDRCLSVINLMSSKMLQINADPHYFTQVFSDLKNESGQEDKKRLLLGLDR

T1 sequence (P61809 99-307 limits assumed): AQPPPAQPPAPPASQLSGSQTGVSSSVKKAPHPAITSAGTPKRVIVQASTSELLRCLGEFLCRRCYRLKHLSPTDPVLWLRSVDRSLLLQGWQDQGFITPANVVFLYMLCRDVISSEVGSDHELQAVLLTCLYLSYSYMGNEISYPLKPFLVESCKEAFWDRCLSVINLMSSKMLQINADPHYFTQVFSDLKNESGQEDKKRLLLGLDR

B1: anti-p25 monoclonal antibody 1C4 (antibody, V domains shown)
VH: QIQLEESGPELRKPGETVRISCKASGYTFTTAGMQWVQKMPGTGLKWIGWINTHSGVPKYAGEFTGRFDFSLETSASTAYLQIVNLKNEDTATYFCARYGKFGEMDYWGQGTSVTVSS
VL: IVMTQSPASLAVSLGQRATISCRSSETVDSDGNSFMHWYQQKPGQSPKLLLYLASTLESGVPARFSGSGSRTDFTLTIDPVEADDAATYYCHQNNEDPTFGGGTKLEIKR
notes: Mouse monoclonal antibody from hybridoma 1C4; also called p25 mAb; anti-p25 antibody
- binding result [1]: binds
- binding result [2]: no binding
- binding result [3]: no binding
